Paper PMC12594388, “Enzymatic properties of a L-asparaginase without secondary glutaminase activity from Streptomyces scabrisporus” (PLOS One, 2025)

Legend:
[1] = substrate: NC(=O)C[C@H](N)C(=O)O; assay: Nessler ammonium assay, Michaelis-Menten fit; type: biochemical, Rhizobium etli; settings: physiological pH (printed as pH 7 and as phosphate pH 7.4), 37 °C
[2] = substrate: NC(=O)C[C@H](N)C(=O)O; assay: Nessler ammonium assay, Michaelis-Menten fit; type: biochemical, Embleya scabrispora; settings: pH 10 (optimum), 37 °C, 0.5-20 mM asparagine
Source text: Nessler ammonium assay, Michaelis-Menten fit on S. scabrisporus L-asparaginase

Protein | Km [1] [mM] | kcat [1] [s⁻¹] | Km [2] [mM] | kcat [2] [s⁻¹]
R. etli L-asparaginase (Rhizobium etli CFN 42) (protein, pET28a (NcoI/EcoRI; pET28a-AnsRe), E. coli BL21(DE3), HisTrap purified, 38 kDa) MTPSEDFVVTDRGGIVENSHRVHAAVVDAKGRLLYALGNPTRMTLARSAAKPAQALAILETEGVAGYGFDDADIALMCASHSSEDRHIARTRAMLSKIKAEEADLRCGGHPSLSEMVNRSWIKQDFIPTAVCSNCSGKHVGMLAGARAIGAGTDGYHLPDHPMQGRVKRTVAELCDLDAGDVEWGTDGCNLPTPAFPLDRLGRIYAKLASAADGSDAGEGQSTRCAALAHIFRAMARHPEMVAGEGRYCTMLMRAFDGALVGKLGADASYAIGVRASDATRQLGTDGALGISVKIEDGNLEMLYAVVTELLERLGIGSPDVRSQLASFHHPQRVNTMGVTTGGVSFPFKLRGSKSNVDDPRLAAVAR | 15.9 ± 4.7 | 140.3 ± 7 |  | 
S. scabrisporus L-asparaginase (Embleya scabrispora) (protein, codon-optimised gene in pET28a(+) (NdeI/EcoRI; pET28a-AnsSs), E. coli BL21(DE3), HisTrap purified, 34 kDa) MRPEDTVPHESTTRYAELAEVVRSGFVESRHFGSLVALAPDGRPALELGVPNEPVVPRSSAKPFQALACLRAGAPLSGAHVAIAAGSHTGQDFHVDAVEDILTRSGLTFDALGCPPSRPEDEDTYQEMIARGEENTRERMNCSGKHAAMLAACVASGWPTEGYLDPGHPLQVLVREGIEELAGESVAHTAVDGCGAPVFAMTLTGLARGVRALATATTGPERVVAKAMREHPAYVGGDGQANTEVMRLLPGVLVKGGAEGVFVAATTAGHAVAVKVIDGSPRATTALALAALHRLGVDVSAASEWTTVPVLGGGLPVGEVRVTSHLG |  |  | 7.361 ± 1.78 | 40.8 ± 2
